Data from article PMC6895276 (Nucleic Acids Research, 2019).

T1: WT MutS (Escherichia coli, UniProt P23909 1-853)
T1 sequence (looked up): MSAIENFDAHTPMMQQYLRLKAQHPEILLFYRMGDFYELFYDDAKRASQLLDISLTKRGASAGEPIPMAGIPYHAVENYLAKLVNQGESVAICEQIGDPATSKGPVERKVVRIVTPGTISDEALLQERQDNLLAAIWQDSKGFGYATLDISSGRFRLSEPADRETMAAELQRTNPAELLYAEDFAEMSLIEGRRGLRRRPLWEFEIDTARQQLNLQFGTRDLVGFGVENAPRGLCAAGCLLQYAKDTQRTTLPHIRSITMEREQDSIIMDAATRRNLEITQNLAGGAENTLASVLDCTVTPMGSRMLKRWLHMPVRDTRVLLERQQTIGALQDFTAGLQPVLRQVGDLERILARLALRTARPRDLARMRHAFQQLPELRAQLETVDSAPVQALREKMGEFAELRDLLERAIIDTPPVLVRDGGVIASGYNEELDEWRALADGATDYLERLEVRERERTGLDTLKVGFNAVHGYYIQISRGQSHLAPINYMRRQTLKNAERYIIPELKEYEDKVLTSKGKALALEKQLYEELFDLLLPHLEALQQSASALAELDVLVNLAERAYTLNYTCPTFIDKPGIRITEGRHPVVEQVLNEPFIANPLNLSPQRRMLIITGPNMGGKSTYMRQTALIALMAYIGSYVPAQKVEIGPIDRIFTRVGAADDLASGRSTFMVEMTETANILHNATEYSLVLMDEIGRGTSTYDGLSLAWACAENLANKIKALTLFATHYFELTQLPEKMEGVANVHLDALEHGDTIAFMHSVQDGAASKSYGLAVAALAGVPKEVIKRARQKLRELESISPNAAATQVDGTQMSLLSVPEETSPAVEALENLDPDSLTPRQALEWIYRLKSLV

B1: MutL WT (natural protein, UniProt P23367 1-615, looked up)
chain: MPIQVLPPQLANQIAAGEVVERPASVVKELVENSLDAGATRIDIDIERGGAKLIRIRDNGCGIKKDELALALARHATSKIASLDDLEAIISLGFRGEALASISSVSRLTLTSRTAEQQEAWQAYAEGRDMNVTVKPAAHPVGTTLEVLDLFYNTPARRKFLRTEKTEFNHIDEIIRRIALARFDVTINLSHNGKIVRQYRAVPEGGQKERRLGAICGTAFLEQALAIEWQHGDLTLRGWVADPNHTTPALAEIQYCYVNGRMMRDRLINHAIRQACEDKLGADQQPAFVLYLEIDPHQVDVNVHPAKHEVRFHQSRLVHDFIYQGVLSVLQQQLETPLPLDDEPQPAPRSIPENRVAAGRNHFAEPAAREPVAPRYTPAPASGSRPAAPWPNAQPGYQKQQGEVYRQLLQTPAPMQKLKAPEPQEPALAANSQSFGRVLTIVHSDCALLERDGNISLLSLPVAERWLRQAQLTPGEAPVCAQPLLIPLRLKVSAEEKSALEKAQSALAELGIDFQSDAQHVTIRAVPLPLRQQNLQILIPELIGYLAKQSVFEPGNIAQWIARNLMSEHAQWSMAQAITLLADVERLCPQLVKTPPGGLLQSVDLHPAIKALKDE

Key:
Assay in all cases: SPR
[1] = biological target: MutS STAB2 (Escherichia coli) (UniProt P23909)
[2] = biological target: MutS STAB4 (Escherichia coli) (UniProt P23909)
[3] = biological target: MutS STAB1 (Escherichia coli) (UniProt P23909)
[4] = biological target: MutS STAB3 (Escherichia coli) (UniProt P23909)
WT MutS = biological target: T1, WT MutS

Molecule	Kd [1] [nM]	Kd [2] [nM]	Kd [3] [nM]	Kd [4] [nM]	Kd (WT MutS) [nM]
MutL WT (from UniProt P23367 1-615) (natural protein)	16	11	18	17	–
B1	–	–	–	–	15
